According to PMC6446281:

Experiments:
[1] = target: GFP-IN 3VI mutant (V72A/I73A, I200A/V201A, V259A/V260A) (HIV-1); assay: co-IP
[2] = target: HA-SUMO3 (UniProt P55854); assay: co-IP (IP anti-HA, WB anti-GFP) with densitometric analysis; conditions: 293 T cells cotransfected with GFP-INwt/mut and HA-SUMO3; parent: est. 1.0; read off a plot
[3] = target: HA-SUMO3 (UniProt P55854); assay: co-IP; 293T cells cotransfected with GFP-INwt/mut and HA-SUMO2 or HA-SUMO3, 40 h; lysis buffer 20 mM Tris-HCl pH 7.5, 100 mM NaCl, 0.5% NP-40, 0.5 mM EDTA; immunoprecipitated with anti-HA, blotted with anti-GFP; densitometry with GFP-INwt set as 100%
[4] = target: M1 + M2 and M1 + M3 mutants; assay: co-IP; 293T cells cotransfected with GFP-INwt/mut and T7-LEDGF/p75, T7-Ku70 or HA-Ubc9; immunoprecipitated with rabbit anti-GFP, blotted with anti-T7 or anti-HA
[5] = target: M2 and M3; assay: as above

T7-Ku70, sequence (P12956 whole entry): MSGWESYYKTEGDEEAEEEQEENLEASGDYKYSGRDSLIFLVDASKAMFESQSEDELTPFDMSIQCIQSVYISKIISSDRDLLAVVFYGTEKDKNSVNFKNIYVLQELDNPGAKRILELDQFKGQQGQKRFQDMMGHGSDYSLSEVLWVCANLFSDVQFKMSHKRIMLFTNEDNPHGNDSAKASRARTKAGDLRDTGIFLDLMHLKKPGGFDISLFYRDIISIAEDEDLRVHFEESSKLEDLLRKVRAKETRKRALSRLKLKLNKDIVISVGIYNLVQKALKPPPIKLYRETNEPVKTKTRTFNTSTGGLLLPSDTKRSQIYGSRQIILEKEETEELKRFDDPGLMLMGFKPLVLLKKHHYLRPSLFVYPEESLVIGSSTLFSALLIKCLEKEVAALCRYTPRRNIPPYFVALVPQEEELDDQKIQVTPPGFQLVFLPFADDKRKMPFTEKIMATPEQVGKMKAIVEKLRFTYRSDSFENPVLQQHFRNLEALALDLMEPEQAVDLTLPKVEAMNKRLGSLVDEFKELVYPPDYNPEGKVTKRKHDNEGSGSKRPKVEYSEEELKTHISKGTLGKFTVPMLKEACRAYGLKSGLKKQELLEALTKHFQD

Q: For “T7-Ku70 (from UniProt P12956 1-609) (natural protein)”, which fold change in binding against INwt [1] is on record?
A: The fold change in binding against INwt was 2 fold.

Q: With “GFP-IN wild type (HIV-1 integrase, codon-optimized, fused to AcGFP) V72A; I73A; I200A; V201A; V259A; V260A” as the substance, how does the ratio to parent [2] read?
A: Its ratio to parent is 0.01.

Q: Which percent reduction in binding against GFP-INwt [3] does the source give for GFP-IN mutant M3 (V259A/V260A) (enzyme) here?
A: Its percent reduction in binding against GFP-INwt is 67%.

Q: “T7-LEDGF/p75 (lens-epithelium-derived growth factor) (from UniProt O75475 1-530) (natural protein)” was tested. Which percent of the binding of INwt [1] did it give?
A: Its percent of the binding of INwt is under 10%.

Q: And the percent of the binding of INwt [4]?
A: Its percent of the binding of INwt is 10 to 20%.

Q: What about the percent of the binding of INwt [5] of the same substance?
A: The percent of the binding of INwt was 40 to 60%.

Q: With GFP-IN mutant M2 (I200A/V201A) (enzyme) as the substance, how does the percent reduction in binding against GFP-INwt [3] read?
A: Its percent reduction in binding against GFP-INwt is 80%.

Q: Which ratio to parent [2] does the source give for “GFP-IN wild type (HIV-1 integrase, codon-optimized, fused to AcGFP) K46R; K136R; K244R” here?
A: Its ratio to parent is 1.1.

Q: With “GFP-IN wild type (HIV-1 integrase, codon-optimized, fused to AcGFP) V72A; I73A” as the substance, how does the ratio to parent [2] read?
A: The ratio to parent was 1.2.
